First the molecules themselves.
B1: scTRAIL3-FAVGGAA (ligand)
chain: LDDYKDDDDKEFGGAAAHITGTRGRSNTLSSPNSKNEKALGRKINSWESSRSGHSFLSNLHLRNGELVIHEKGFYYIYSQTYFRFQEEIKENTKNDKQMVQYIYKYTSYPDPILLMKSARNSCWSKDAEYGLYSIYQGGIFELKENDRIFVSVTNEHLIDMDHEASFFGAFAVGGAAAHITGTRGRSNTLSSPNSKNEKALGRKINSWESSRSGHSFLSNLHLRNGELVIHEKGFYYIYSQTYFRFQEEIKENTKNDKQMVQYIYKYTSYPDPILLMKSARNSCWSKDAEYGLYSIYQGGIFELKENDRIFVSVTNEHLIDMDHEASFFGAFAVGGAAAHITGTRGRSNTLSSPNSKNEKALGRKINSWESSRSGHSFLSNLHLRNGELVIHEKGFYYIYSQTYFRFQEEIKENTKNDKQMVQYIYKYTSYPDPILLMKSARNSCWSKDAEYGLYSIYQGGIFELKENDRIFVSVTNEHLIDMDHEASFFGAFAVG
B2: scTRAIL3-FAVGGIA (protein)
chain: MDWTWRVFCLLAVAPGAHSLDDYKDDDDKEFGGAAAHITGTRGRSNTLSSPNSKNEKALGRKINSWESSRSGHSFLSNLHLRNGELVIHEKGFYYIYSQTYFRFQEEIKENTKNDKQMVQYIYKYTSYPDPILLMKSARNSCWSKDAEYGLYSIYQGGIFELKENDRIFVSVTNEHLIDMDHEASFFGAFLVGGAAAHITGTRGRSNTLSSPNSKNEKALGRKINSWESSRSGHSFLSNLHLRNGELVIHEKGFYYIYSQTYFRFQEEIKENTKNDKQMVQYIYKYTSYPDPILLMKSARNSCWSKDAEYGLYSIYQGGIFELKENDRIFVSVTNEHLIDMDHEASFFGAFLVGGAAAHITGTRGRSNTLSSPNSKNEKALGRKINSWESSRSGHSFLSNLHLRNGELVIHEKGFYYIYSQTYFRFQEEIKENTKNDKQMVQYIYKYTSYPDPILLMKSARNSCWSKDAEYGLYSIYQGGIFELKENDRIFVSVTNEHLIDMDHEASFFGAFLVG
B3: scTRAIL3-FIVSGIA (protein)
chain: B2 chain with A34I, L191I, A195I, L352I, A356I, L513I
B4: scTRAIL3-FIVGGIA (protein)
chain: B2 chain with L191A, L352A, L513A
B5: scTRAIL3-FLVSGIA (protein)
chain: B2 chain with A34I, L191A, A195I, L352A, A356I, L513A
B6: scTRAIL3-FAVSGAA (protein)
chain: B2 chain with L191A, G193S, L352A, G354S, L513A, G515S
B7: Db-Glyco-scTRAIL-95L8 (other)
chain: TSEETISTVQEKQQNISPLVRERGPQRVAAHITGTRGRSNTLSSPNSKNEKALGRKINSWESSRSGHSFLSNLHLRNGELVIHEKGFYYIYSQTYFRFQEEIKENTKNDKQMVQYIYKYTSYPDPILLMKSARNSCWSKDAEYGLYSIYQGGIFELKENDRIFVSVTNEHLIDMDHEASFFGAFLVGGGGSGGGSTSEETISTVQEKQQNISPLVRERGPQRVAAHITGTRGRSNTLSSPNSKNEKALGRKINSWESSRSGHSFLSNLHLRNGELVIHEKGFYYIYSQTYFRFQEEIKENTKNDKQMVQYIYKYTSYPDPILLMKSARNSCWSKDAEYGLYSIYQGGIFELKENDRIFVSVTNEHLIDMDHEASFFGAFLVGGGGSGGGSTSEETISTVQEKQQNISPLVRERGPQRVAAHITGTRGRSNTLSSPNSKNEKALGRKINSWESSRSGHSFLSNLHLRNGELVIHEKGFYYIYSQTYFRFQEEIKENTKNDKQMVQYIYKYTSYPDPILLMKSARNSCWSKDAEYGLYSIYQGGIFELKENDRIFVSVTNEHLIDMDHEASFFGAFLVG
B8: Db-Glyco-scTRAIL3-FAVSGAA (other)
chain: LEASDYKDDDDKGAEVQLVESGGGLVQPGGSLRLSCAASGFSLTNYGVHWVRQAPGKGLEWLGVIWSGGNTDYNTPFTSRFTISRDNSKNTLYLQMNSLRAEDTAVYYCARALTYYDYEFAYWGQGTTVTVSSGGGGSDIQLTQSPSFLSASVGDRVTITCRASQSIGTNIHWYQQKPGKAPKLLIKYASESISGVPSRFSGSGSGTEFTLTISSLQPEDFATYYCQQNNNWPTTFGAGTKLEIKRAAAGNGTSNGTSEFGGAAAHITGTRGRSNTLSSPNSKNEKALGRKINSWESSRSGHSFLSNLHLRNGELVIHEKGFYYIYSQTYFRFQEEIKENTKNDKQMVQYIYKYTSYPDPILLMKSARNSCWSKDAEYGLYSIYQGGIFELKENDRIFVSVTNEHLIDMDHEASFFGAFAVSGAAAHITGTRGRSNTLSSPNSKNEKALGRKINSWESSRSGHSFLSNLHLRNGELVIHEKGFYYIYSQTYFRFQEEIKENTKNDKQMVQYIYKYTSYPDPILLMKSARNSCWSKDAEYGLYSIYQGGIFELKENDRIFVSVTNEHLIDMDHEASFFGAFAVSGAAAHITGTRGRSNTLSSPNSKNEKALGRKINSWESSRSGHSFLSNLHLRNGELVIHEKGFYYIYSQTYFRFQEEIKENTKNDKQMVQYIYKYTSYPDPILLMKSARNSCWSKDAEYGLYSIYQGGIFELKENDRIFVSVTNEHLIDMDHEASFFGAFAVS
modifications: two N-glycosylation sites in the peptide AAAGNGTSNGTSEFGG, shown to be glycosylated
B9: Db-Glyco-scTRAIL3-FAVSGIA (other)
chain: B8 chain with A263I, A424I, A585I
modifications: glycosylated connecting peptide
B10: Db8-Glyco-scTRAIL3-FAVSGAA (other)
chain: LEASDYKDDDDKGAEVQLVESGGGLVQPGGSLRLSCAASGFSLTNYGVHWVRQAPGKGLEWLGVIWSGGNTDYNTPFTSRFTISRDNSKNTLYLQMNSLRAEDTAVYYCARALTYYDYEFAYWGQGTTVTVSSGGGGSGGGDIQLTQSPSFLSASVGDRVTITCRASQSIGTNIHWYQQKPGKAPKLLIKYASESISGVPSRFSGSGSGTEFTLTISSLQPEDFATYYCQQNNNWPTTFGAGTKLEIKRAAAGNGTSNGTSEFGGAAAHITGTRGRSNTLSSPNSKNEKALGRKINSWESSRSGHSFLSNLHLRNGELVIHEKGFYYIYSQTYFRFQEEIKENTKNDKQMVQYIYKYTSYPDPILLMKSARNSCWSKDAEYGLYSIYQGGIFELKENDRIFVSVTNEHLIDMDHEASFFGAFAVSGAAAHITGTRGRSNTLSSPNSKNEKALGRKINSWESSRSGHSFLSNLHLRNGELVIHEKGFYYIYSQTYFRFQEEIKENTKNDKQMVQYIYKYTSYPDPILLMKSARNSCWSKDAEYGLYSIYQGGIFELKENDRIFVSVTNEHLIDMDHEASFFGAFAVSGAAAHITGTRGRSNTLSSPNSKNEKALGRKINSWESSRSGHSFLSNLHLRNGELVIHEKGFYYIYSQTYFRFQEEIKENTKNDKQMVQYIYKYTSYPDPILLMKSARNSCWSKDAEYGLYSIYQGGIFELKENDRIFVSVTNEHLIDMDHEASFFGAFAVS
modifications: glycosylated connecting peptide
B11: Db10-Glyco-scTRAIL3-FAVSGAA (other)
chain: LEASDYKDDDDKGAEVQLVESGGGLVQPGGSLRLSCAASGFSLTNYGVHWVRQAPGKGLEWLGVIWSGGNTDYNTPFTSRFTISRDNSKNTLYLQMNSLRAEDTAVYYCARALTYYDYEFAYWGQGTTVTVSSGGGGSGGGGSDIQLTQSPSFLSASVGDRVTITCRASQSIGTNIHWYQQKPGKAPKLLIKYASESISGVPSRFSGSGSGTEFTLTISSLQPEDFATYYCQQNNNWPTTFGAGTKLEIKRAAAGNGTSNGTSEFGGAAAHITGTRGRSNTLSSPNSKNEKALGRKINSWESSRSGHSFLSNLHLRNGELVIHEKGFYYIYSQTYFRFQEEIKENTKNDKQMVQYIYKYTSYPDPILLMKSARNSCWSKDAEYGLYSIYQGGIFELKENDRIFVSVTNEHLIDMDHEASFFGAFAVSGAAAHITGTRGRSNTLSSPNSKNEKALGRKINSWESSRSGHSFLSNLHLRNGELVIHEKGFYYIYSQTYFRFQEEIKENTKNDKQMVQYIYKYTSYPDPILLMKSARNSCWSKDAEYGLYSIYQGGIFELKENDRIFVSVTNEHLIDMDHEASFFGAFAVSGAAAHITGTRGRSNTLSSPNSKNEKALGRKINSWESSRSGHSFLSNLHLRNGELVIHEKGFYYIYSQTYFRFQEEIKENTKNDKQMVQYIYKYTSYPDPILLMKSARNSCWSKDAEYGLYSIYQGGIFELKENDRIFVSVTNEHLIDMDHEASFFGAFAVS
modifications: glycosylated connecting peptide
B12: scTRAIL3-FLVGGAA (ligand)
chain: B1 chain with A172L, A333L, A494L
B13: scTRAIL3-FLVGGVA (ligand)
chain: B1 chain with A15V, A172L, A176V, A333L, A337V, A494L

Changes are numbered by the printed parent chain.

Usually EC50 stands for the midpoint of the concentration-response curve.

One experiment deals with TRAIL-R2-Fc (human, UniProt O14763 56-210). The experiment can be described thus: ELISA.
With B1, the EC50 worked out at 5.25 nM.
Regarding B2, the midpoint of the response, the EC50, lay at 8.82 nM.
In turn, B3 had an EC50 of 6.7 nM.
Take B4: a half-maximal response (EC50) required 4.82 nM.
The same measure, in the same setting: the same measure for B5: 17.5 nM.
Same read-out and setting: the same measure for B6: 5.69 nM.

A further experiment concerns the target HT1080. The experiment can be described thus: flow cytometry; HT1080 cells. (A flow cytometer gives signals particle by particle.)
Molecule B7 gave an EC50 of 0.6 nM.
On the same count and under the same terms, for B8 the value was 2.6 nM.
The same measure, in the same setting: the same measure for B9: 4.3 nM; for B10: 1.9 nM; for B11: 3 nM.

A further experiment addresses Colo 205. The experiment can be described thus: flow cytometry; Colo205 cells.
With B1, the EC50 stood at 4.1 nM. This lies in the single-digit nanomolar range.
Molecule B12 gave an EC50 of 4.2 nM.
Regarding B13, the EC50 turned out to be 12.7 nM.

Source of the values: patent publication US20180094059A1 (published 2018).
